A word on the Kd: it is the constant that tells how readily two partners part at equilibrium. A higher Kd goes with a looser complex.

Experimental findings from article PMC9330529 are described below.

For data set [1], the target named is SARS-CoV-2 spike protein WT (SARS-CoV-2 (WT), UniProt P0DTC2 14-1213). The experiment in a line: streptavidin bead fluorescence binding. The note with it: protein: commercial, tags: His, chain copies: 3.
For data set [2], the target named is SARS-CoV-2 S2 protein (SARS-CoV-2 (WT), UniProt P0DTC2 686-1213). The data set is described as follows: streptavidin bead fluorescence binding. Particulars: protein: commercial, tags: His.
Data set [3] shares this target. The data set is described as follows: streptavidin bead fluorescence binding. The note with it: protein: commercial; tags: His.
Another data set has as its target PD-L1 (UniProt Q9NZQ7 19-238). The experiment in a line: AuNP colorimetric assay; 1.5 M NaCl, 250 nM each; SELEX buffer: PBS, 1 mM MgCl2, 0.01% Tween, pH 7.4, room temperature. Particulars: protein: commercial; hairpin.
A further data set deals with SARS-CoV-1 spike protein (SARS-CoV-1, UniProt P59594 14-1195).
The target in a further data set is SARS-CoV-2 S1 protein (SARS-CoV-2, UniProt P0DTC2 14-685).

Sequence of PD-L1 (Q9NZQ7 19-238): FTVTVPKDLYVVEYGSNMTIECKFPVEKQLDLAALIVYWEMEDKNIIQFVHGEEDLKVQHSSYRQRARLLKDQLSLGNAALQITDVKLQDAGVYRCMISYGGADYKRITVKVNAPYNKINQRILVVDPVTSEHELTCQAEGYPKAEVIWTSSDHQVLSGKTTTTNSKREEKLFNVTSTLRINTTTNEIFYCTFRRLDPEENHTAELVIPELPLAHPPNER

In data set [1], CGCAGCACCCAAGAACAAGGACTGCTTAGGATTGCGATAGGTTCGG (ssDNA) [S1B6C3] registered a Kd of 56.4 ± 14.2 nM.

CAAGGAGCGACCAGAGGCGGGTTCCTAGACTTGTACTCAGCCT (ssDNA) [S2A2C3]: in the data set with SARS-CoV-2 S2 protein [2] (label: 6-FAM), the binding result is reported as “binds”.

B1: S2A1C1 (ssDNA)
DNA: CAAGGAGCGACCAGAGGGGCGGTTTATCAACAACTCGCTCTGTACACCACTCTTTG
Turning to B1, in the data set with SARS-CoV-2 S2 protein [3], the binding result is on record as “binds”.

For AGGCGGGTTCCTAGACTTGTACTCAGCCT (ssDNA) [S2A2C1], the binding result with PD-L1 is on record as “no binding”; in the data set with SARS-CoV-1 spike protein, “binds”; with SARS-CoV-2 S1 protein, “no binding”. Also, the values for the Kd (in data set [1] (hairpin); in the data set with SARS-CoV-2 S2 protein [2] (hairpin)) were 83.4 ± 8 nM and 35 ± 4.3 nM, respectively.

B2: S2A2 (ssDNA)
DNA: CAAGGAGCGACCAGAGGCGGGTTCCTAGACTTGTACTCAGCCTTTACAGCTATGCCCTGGCATCCTTCAGCCC
As to B2, the Kd with SARS-CoV-2 S2 protein [2] (label: 6-FAM) was determined as 44.2 ± 6.6 nM.

B3: S2A1 (ssDNA)
DNA: CAAGGAGCGACCAGAGGGGCGGTTTATCAACAACTCGCTCTGTACACCACTCTTTGTTGGCATCCTTCAGCCC
Take B3: binding with SARS-CoV-2 S2 protein [3] was put at a Kd of 49.7 ± 3.2 nM.
